Experiments:
CCR9^QTY–Fc = CCR9^QTY–Fc (UniProt P51686); assay: MST; 5 nM NT647-labelled receptor-Fc against a gradient of ligand; 1x PBS, 10 mM DTT, arginine at different concentrations; Monolith NT.115 pico, 25°C; data from the early T-Jump period; Kd model (law of mass action)
IL10Rα^QTY–Fc = assay: as above
IFNγ (Homo sapiens) [1] = target: IFNγ (Homo sapiens) (UniProt P01579); assay: SPR; conditions: cited from earlier work
IFNγ (Homo sapiens) [2] = target: IFNγ (Homo sapiens) (UniProt P01579); assay: cell-based assay; conditions: cited from earlier work
IFNλR1^QTY–Fc = assay: MST; 5 nM NT647-labelled receptor-Fc against a gradient of ligand; 1x PBS, 10 mM DTT, arginine at different concentrations; Monolith NT.115 pico, 25°C; data from the early T-Jump period; Kd model (law of mass action)
IL8 (Homo sapiens) = IL8 (Homo sapiens) (UniProt P10145); conditions: cited from earlier work
IL8 (Homo sapiens), sequence (P10145 28-99): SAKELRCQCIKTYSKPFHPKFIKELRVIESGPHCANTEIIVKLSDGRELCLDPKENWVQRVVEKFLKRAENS

[3] = target: IL8 (dimer) (Homo sapiens) (UniProt P10145); assay: cell-based assay; conditions: cited from earlier work
IL8 (dimer) (Homo sapiens), sequence (P10145 28-99): as above

[4] = target: IL8 (monomer) (Homo sapiens) (UniProt P10145); assay: cell-based assay; conditions: cited from earlier work
IL8 (monomer) (Homo sapiens), sequence (P10145 28-99): as above

CCL25 (Homo sapiens) = CCL25 (Homo sapiens) (UniProt O15444); conditions: cited from earlier work
CCL25 (Homo sapiens), sequence (O15444 24-150): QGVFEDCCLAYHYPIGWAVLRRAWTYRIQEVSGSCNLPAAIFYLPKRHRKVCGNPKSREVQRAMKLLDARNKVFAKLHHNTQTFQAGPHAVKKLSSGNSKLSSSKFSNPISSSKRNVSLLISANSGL

IL4 (Homo sapiens) = IL4 (Homo sapiens) (UniProt P05112); assay: SPR; conditions: cited from earlier work
IL4 (Homo sapiens), sequence (P05112 25-153): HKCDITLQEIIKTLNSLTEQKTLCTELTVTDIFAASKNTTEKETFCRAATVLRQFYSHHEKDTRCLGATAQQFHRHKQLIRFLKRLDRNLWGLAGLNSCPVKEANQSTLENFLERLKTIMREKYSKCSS

IFNγR1^QTY–Fc = assay: MST; 5 nM NT647-labelled receptor-Fc against a gradient of ligand; 1x PBS, 10 mM DTT, arginine at different concentrations; Monolith NT.115 pico, 25°C; data from the early T-Jump period; Kd model (law of mass action)

CXCR2, sequence (P25025 whole entry): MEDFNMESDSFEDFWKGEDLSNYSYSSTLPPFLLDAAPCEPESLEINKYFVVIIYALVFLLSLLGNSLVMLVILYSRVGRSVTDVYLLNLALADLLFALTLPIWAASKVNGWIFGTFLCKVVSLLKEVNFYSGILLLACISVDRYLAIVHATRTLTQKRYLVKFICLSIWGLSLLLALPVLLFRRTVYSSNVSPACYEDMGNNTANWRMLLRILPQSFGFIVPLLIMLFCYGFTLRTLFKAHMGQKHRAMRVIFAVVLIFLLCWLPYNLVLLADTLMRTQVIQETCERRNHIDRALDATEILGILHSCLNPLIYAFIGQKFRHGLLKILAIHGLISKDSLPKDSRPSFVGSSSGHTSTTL
IFNγ (Homo sapiens), sequence (P01579 24-161): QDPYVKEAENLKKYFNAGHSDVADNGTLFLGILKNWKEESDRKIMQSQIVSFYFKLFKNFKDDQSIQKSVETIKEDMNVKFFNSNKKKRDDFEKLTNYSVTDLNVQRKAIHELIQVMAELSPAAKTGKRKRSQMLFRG
IFNγR1, sequence (P15260 18-245): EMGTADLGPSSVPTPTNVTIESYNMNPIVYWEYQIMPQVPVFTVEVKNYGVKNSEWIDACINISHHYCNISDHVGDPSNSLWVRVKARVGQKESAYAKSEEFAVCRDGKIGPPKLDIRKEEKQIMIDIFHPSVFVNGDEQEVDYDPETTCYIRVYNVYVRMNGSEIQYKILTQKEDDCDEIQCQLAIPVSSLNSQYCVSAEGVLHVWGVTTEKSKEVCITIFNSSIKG
CCL25, sequence (O15444 24-150): as the sequence (O15444 24-150) above
IFNγ, sequence (P01579 24-161): as the sequence (P01579 24-161) above
IL10, sequence (P22301 19-178): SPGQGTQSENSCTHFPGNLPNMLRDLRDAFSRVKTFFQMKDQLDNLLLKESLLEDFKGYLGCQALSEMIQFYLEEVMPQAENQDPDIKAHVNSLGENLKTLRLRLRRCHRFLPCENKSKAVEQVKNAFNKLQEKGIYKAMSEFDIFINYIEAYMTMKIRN
IL4Rα, sequence (P24394 26-232): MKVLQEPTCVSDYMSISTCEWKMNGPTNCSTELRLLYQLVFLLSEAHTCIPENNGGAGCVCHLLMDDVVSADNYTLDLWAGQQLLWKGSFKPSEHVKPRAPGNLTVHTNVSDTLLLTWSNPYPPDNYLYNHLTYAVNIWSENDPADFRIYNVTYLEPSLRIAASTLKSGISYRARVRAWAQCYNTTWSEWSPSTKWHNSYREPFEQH
IL29, sequence (Q8IU54 20-200): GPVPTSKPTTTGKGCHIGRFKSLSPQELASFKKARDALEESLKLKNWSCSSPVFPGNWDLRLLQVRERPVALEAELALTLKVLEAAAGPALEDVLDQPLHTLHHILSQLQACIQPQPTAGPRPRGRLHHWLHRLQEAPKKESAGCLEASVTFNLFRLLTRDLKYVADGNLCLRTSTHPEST

**Q.** For “CCL25 (from UniProt O15444 24-150) (ligand)”, which Kd (CCR9^QTY–Fc) is on record?
**A.** 37.2 nM

**Q.** With “IL10 (from UniProt P22301 19-178) (ligand)” as the substance, how does the Kd (IL10Rα^QTY–Fc) read?
**A.** 1.6 nM

**Q.** For IFNγR1 (from UniProt P15260), which Kd (IFNγ (Homo sapiens) [1]) is on record?
**A.** 30.8 nM

**Q.** And the Kd (IFNγ (Homo sapiens) [2])?
**A.** 1.7 nM

**Q.** For “IL29 (from UniProt Q8IU54 20-200) (ligand)”, which Kd (IFNλR1^QTY–Fc) is on record?
**A.** 11.5 nM

**Q.** Which results are given for CXCR2 (from UniProt P25025)?
**A.** Kd (IL8 (Homo sapiens)): 70 nM; Kd [3]: 8.5 nM; Kd [4]: 0.5 nM

**Q.** With CCR9 (from UniProt P51686) as the substance, how does the Kd (CCL25 (Homo sapiens)) read?
**A.** 8 nM

**Q.** With IL4Rα (from UniProt P24394) as the substance, how does the Kd (IL4 (Homo sapiens)) read?
**A.** 1 nM

**Q.** With “IFNγ (from UniProt P01579 24-161) (ligand)” as the substance, how does the Kd (IFNγR1^QTY–Fc) read?
**A.** 6.2 nM

Source: publication PMC7419741
